Ends that are not written are not given here.
T1: K280-ac protein fragment (human)
T1 construct: also called mAC
T1 peptide: VQIINK(Ac)KLDLSN


Biological target: T1, K280-ac protein fragment
Assay: ELISA on K280-ac coated at 250 ng/well, HRP anti-human IgG
Description: (§1) In addition, binding of the K280-ac protein fragment prepared in Preparation Example 1 with the ADEL-Y01h (v01 to v12) antibodies prepared in Preparation Example 2 was measured by ELISA.
(§2) First, plates were treated with the K280-ac protein fragment at 250 ng/well and reaction was allowed to proceed at 4° C. overnight. The next day, washing with a washing buffer was performed three times, and then treatment with a primary antibody was performed with 8 concentrations (2 μg, 1 μg, 0.5 μg, 0.25 μg, 0.12 μg, 0.06 μg, 0.03 μg, 0.01 μg). As a secondary antibody, HRP-labeled anti-human IgG antibody was used.

Binder | Absorbance at 450nm at 0.01ug/well | Absorbance at 450nm at 0.03ug/well | Absorbance at 450nm at 0.06ug/well | Absorbance at 450nm at 0.12ug/well | Absorbance at 450nm at 0.25ug/well | Absorbance at 450nm at 0.5ug/well | Absorbance at 450nm at 1ug/well | Absorbance at 450nm at 2ug/well | binding result
ADEL-Y01h v05 antibody (antibody, V domains shown, Humanized antibody; It was detected with anti-human IgG; also called Y01h01v05) VH: EVQLQQSGPGLVKPSQTLSLTCAVSGDSITSGYWNWIRQSPSRGLEWLGYIRYSGRTYYNPSLKSRITINRDTSKNQFSLQLNSVTPEDTAVYYCASVYFTYWGQGTLVTVSS VL: DVVMTQSPDSLAVSLGERATINCKSSQSLLDSDGKTYLNWYQQKPGQSPKRLISLVSKLDSGVPDRFSGSGSGTDFTLTISSLQAEDVAVYYCWQGSHFPYTFGQGTKLEIK | 0.131 | 0.224 | 0.431 | 0.908 | 1.3 | 1.7 | 1.85 | 2.06 | –
ADEL-Y01h01_v01 antibody (antibody, V domains shown, Humanized ADEL-Y01m; It was detected with anti-human IgG; also called ADEL-Y01h v01) VH: EVQLQESGPGLVKPSQTLSLTCTVSGDSITSGYWNWIRQPPGKGLEYIGYIRYSGRTYYNPSLKSRVTISRDTSKNQFSLKLSSVTAADTAVYYCASVYFTYWGQGTLVTVSS VL: DVVMTQSPLSLPVTLGQPASISCKSSQSLLDSDGKTYLNWFQQRPGQSPKRLISLVSKLDSGVPDRFSGSGSGTDFTLKISRVEAEDVGVYYCWQGSHFPYTFGQGTKLEIK | 0.731 | 0.899 | 1.1 | 1.58 | 1.93 | 2.07 | 2.22 | 2.42 | –
ADEL-Y01h v02 antibody (antibody, V domains shown, Humanized antibody; It was detected with anti-human IgG; also called Y01h01v02) VH: EVQLQESGPGLVKPSQTLSLTCTVSGDSITSGYWNWIRQPPGKGLEYIGYIRYSGRTYYNPSLKSRVTISRDTSKNQFSLKLSSVTAADTAVYYCASVYFTYWGQGTLVTVSS VL: DVVMTQSPDSLAVSLGERATINCKSSQSLLDSDGKTYLNWYQQKPGQSPKRLISLVSKLDSGVPDRFSGSGSGTDFTLTISSLQAEDVAVYYCWQGSHFPYTFGQGTKLEIK | 0.103 | 0.203 | 0.377 | 0.805 | 1.12 | 1.61 | 1.83 | 2.08 | –
ADEL-Y01h v04 antibody (antibody, V domains shown, Humanized antibody; It was detected with anti-human IgG; also called Y01h01v04) VH: EVQLQQSGPGLVKPSQTLSLTCAVSGDSITSGYWNWIRQSPSRGLEWLGYIRYSGRTYYNPSLKSRITINRDTSKNQFSLQLNSVTPEDTAVYYCASVYFTYWGQGTLVTVSS VL: DVVMTQSPLSLPVTLGQPASISCKSSQSLLDSDGKTYLNWFQQRPGQSPKRLISLVSKLDSGVPDRFSGSGSGTDFTLKISRVEAEDVGVYYCWQGSHFPYTFGQGTKLEIK | 0.354 | 0.537 | 0.822 | 1.43 | 1.74 | 2.04 | 2.18 | 2.32 | –
ADEL-Y01h v03 antibody (antibody, V domains shown, Humanized antibody; It was detected with anti-human IgG; also called Y01h01v03) VH: EVQLQESGPGLVKPSQTLSLTCTVSGDSITSGYWNWIRQPPGKGLEYIGYIRYSGRTYYNPSLKSRVTISRDTSKNQFSLKLSSVTAADTAVYYCASVYFTYWGQGTLVTVSS VL: EVVLTQSPGTLSLSPGERATLSCKSSQSLLDSDGKTYLNWYQQKPGQSPKRLISLVSKLDSGIPDRFSGSGSGTDFTLTISRLEPEDFAVYYCWQGSHFPYTFGQGTKLEIK | 0.0815 | 0.17 | 0.302 | 0.641 | 1.06 | 1.51 | 1.79 | 2.06 | –

Next, values leading:

Absorbance at 450nm at 0.01ug/well | Absorbance at 450nm at 0.03ug/well | Absorbance at 450nm at 0.06ug/well | Absorbance at 450nm at 0.12ug/well | Absorbance at 450nm at 0.25ug/well | Absorbance at 450nm at 0.5ug/well | Absorbance at 450nm at 1ug/well | Absorbance at 450nm at 2ug/well | binding result | Binder
0.015 | 0.041 | 0.0375 | 0.0745 | 0.0855 | 0.0965 | 0.179 | 0.294 | – | ADEL-Y01h v08 antibody (antibody, V domains shown, Humanized antibody; It was detected with anti-human IgG; also called Y01h01v08) VH: EVTLKESGPTLVKPTQTLTLTCTVSGDSITSGYWNWIRQPPGKALEYLAYIRYSGRTYYNPSLKSRLTITRDTSKNQVVLTMTNMDPVDTATYYCASVYFTYWGQGTLVTVSS VL: DVVMTQSPDSLAVSLGERATINCKSSQSLLDSDGKTYLNWYQQKPGQSPKRLISLVSKLDSGVPDRFSGSGSGTDFTLTISSLQAEDVAVYYCWQGSHFPYTFGQGTKLEIK
0.145 | 0.398 | 0.484 | 1.05 | 1.19 | 1.29 | 1.58 | 1.41 | – | v12 (antibody, V domains shown, also called Y01h01v12; ADEL-Y01h v12 antibody) VH: EVQLVESGGGLVQPGRSLRLSCTVSGDSITSGYWNWFRQAPGKGLEYVGYIRYSGRTYYNPSLKSRFTISRDTSKNIAYLQMNSLKTEDTAVYYCASVYFTYWGQGTLVTVSS VL: EVVLTQSPGTLSLSPGERATLSCKSSQSLLDSDGKTYLNWYQQKPGQSPKRLISLVSKLDSGIPDRFSGSGSGTDFTLTISRLEPEDFAVYYCWQGSHFPYTFGQGTKLEIK
0.0585 | 0.114 | 0.265 | 0.657 | 1.09 | 1.51 | 1.76 | 2.05 | – | ADEL-Y01h v06 antibody (antibody, V domains shown, Humanized antibody; It was detected with anti-human IgG; also called Y01h01v06) VH: EVQLQQSGPGLVKPSQTLSLTCAVSGDSITSGYWNWIRQSPSRGLEWLGYIRYSGRTYYNPSLKSRITINRDTSKNQFSLQLNSVTPEDTAVYYCASVYFTYWGQGTLVTVSS VL: EVVLTQSPGTLSLSPGERATLSCKSSQSLLDSDGKTYLNWYQQKPGQSPKRLISLVSKLDSGIPDRFSGSGSGTDFTLTISRLEPEDFAVYYCWQGSHFPYTFGQGTKLEIK
0.0085 | 0.0225 | 0.027 | 0.0345 | 0.036 | 0.0395 | 0.0455 | 0.048 | no binding (tested: 2 ug/well) | v11 (antibody, V domains shown, also called Y01h01v11; ADEL-Y01h v11 antibody) VH: EVQLVESGGGLVQPGRSLRLSCTVSGDSITSGYWNWFRQAPGKGLEYVGYIRYSGRTYYNPSLKSRFTISRDTSKNIAYLQMNSLKTEDTAVYYCASVYFTYWGQGTLVTVSS VL: DVVMTQSPDSLAVSLGERATINCKSSQSLLDSDGKTYLNWYQQKPGQSPKRLISLVSKLDSGVPDRFSGSGSGTDFTLTISSLQAEDVAVYYCWQGSHFPYTFGQGTKLEIK
0.251 | 0.542 | 0.75 | 1.22 | 1.32 | 1.45 | 1.61 | 1.69 | – | ADEL-Y01h v09 antibody (antibody, V domains shown, Humanized antibody; It was detected with anti-human IgG; also called Y01h01v09) VH: EVTLKESGPTLVKPTQTLTLTCTVSGDSITSGYWNWIRQPPGKALEYLAYIRYSGRTYYNPSLKSRLTITRDTSKNQVVLTMTNMDPVDTATYYCASVYFTYWGQGTLVTVSS VL: EVVLTQSPGTLSLSPGERATLSCKSSQSLLDSDGKTYLNWYQQKPGQSPKRLISLVSKLDSGIPDRFSGSGSGTDFTLTISRLEPEDFAVYYCWQGSHFPYTFGQGTKLEIK
0.568 | 0.997 | 1.23 | 1.65 | 1.64 | 1.78 | 1.9 | 1.87 | – | ADEL-Y01h v10 antibody (antibody, V domains shown, Humanized antibody; It was detected with anti-human IgG; also called Y01h01v10) VH: EVQLVESGGGLVQPGRSLRLSCTVSGDSITSGYWNWFRQAPGKGLEYVGYIRYSGRTYYNPSLKSRFTISRDTSKNIAYLQMNSLKTEDTAVYYCASVYFTYWGQGTLVTVSS VL: DVVMTQSPLSLPVTLGQPASISCKSSQSLLDSDGKTYLNWFQQRPGQSPKRLISLVSKLDSGVPDRFSGSGSGTDFTLKISRVEAEDVGVYYCWQGSHFPYTFGQGTKLEIK

Biological target: T1, K280-ac protein fragment
Assay: ELISA, K280-ac coated at 250 ng/well
Description: as §1, §2

binding result | Binder
binds | ADEL-Y01h v07 antibody (antibody, V domains shown, Humanized antibody; It was detected with anti-human IgG; also called Y01h01v07) VH: EVTLKESGPTLVKPTQTLTLTCTVSGDSITSGYWNWIRQPPGKALEYLAYIRYSGRTYYNPSLKSRLTITRDTSKNQVVLTMTNMDPVDTATYYCASVYFTYWGQGTLVTVSS VL: DVVMTQSPLSLPVTLGQPASISCKSSQSLLDSDGKTYLNWFQQRPGQSPKRLISLVSKLDSGVPDRFSGSGSGTDFTLKISRVEAEDVGVYYCWQGSHFPYTFGQGTKLEIK

What follows are binders tested against T2, Tau (Acetylation -) (assay: plate assay as drawn: capture Ab 1ug/well, antigen titrated).
T2 construct: also called non-Ac tau protein; non-acetylated wild type tau protein
T2 sequence (tau protein, as listed by the source): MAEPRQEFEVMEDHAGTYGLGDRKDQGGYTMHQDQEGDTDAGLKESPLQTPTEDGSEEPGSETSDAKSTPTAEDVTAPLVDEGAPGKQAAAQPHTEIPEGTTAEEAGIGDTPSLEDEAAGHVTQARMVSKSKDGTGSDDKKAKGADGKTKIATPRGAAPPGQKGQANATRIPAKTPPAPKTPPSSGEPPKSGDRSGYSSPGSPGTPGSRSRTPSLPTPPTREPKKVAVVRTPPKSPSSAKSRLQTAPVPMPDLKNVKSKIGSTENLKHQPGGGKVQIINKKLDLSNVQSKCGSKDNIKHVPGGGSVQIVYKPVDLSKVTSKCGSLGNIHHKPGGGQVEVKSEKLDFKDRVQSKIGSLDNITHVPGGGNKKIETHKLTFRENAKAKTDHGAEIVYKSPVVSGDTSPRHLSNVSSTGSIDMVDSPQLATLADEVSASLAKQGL

Binder | binding result
ADEL-Y01h01_v01 antibody (antibody, V domains shown, Humanized ADEL-Y01m; It was detected with anti-human IgG; also called ADEL-Y01h v01) VH: EVQLQESGPGLVKPSQTLSLTCTVSGDSITSGYWNWIRQPPGKGLEYIGYIRYSGRTYYNPSLKSRVTISRDTSKNQFSLKLSSVTAADTAVYYCASVYFTYWGQGTLVTVSS VL: DVVMTQSPLSLPVTLGQPASISCKSSQSLLDSDGKTYLNWFQQRPGQSPKRLISLVSKLDSGVPDRFSGSGSGTDFTLKISRVEAEDVGVYYCWQGSHFPYTFGQGTKLEIK | no binding (tested: 100.00 (unit not printed))

— patent publication US20220204601A1 (ADEL, published 2022)
